Experimental data published in patent publication US20250243243A1, “DISRUPTION OF SONIC HEDGEHOG-SURF4 INTERACTION FOR CANCER TREATMENT” (The Hong Kong University of Science and Technology, priority 2022, published 2025).

Experiments:
ShhN^1-198-HA (mouse) [1] = target: ShhN^1-198-HA (mouse) (UniProt Q62226); assay: anti-HA immunoprecipitation from HEK293T lysate, label-free quantitative mass spectrometry; 2 unique peptides; untransfected Control Group printed 247624.8556
IGF2-HA (human) = IGF2-HA (human) (UniProt P01344); assay: as above
ShhN^1-198-HA (mouse) [2] = target: ShhN^1-198-HA (mouse) (UniProt Q62226); assay: anti-HA immunoprecipitation from HEK293T lysate, label-free quantitative mass spectrometry; ratio of the ShhN-HA group to the IGF2-HA group

Sequence of ShhN^1-198-HA (mouse) (Q62226 25-198): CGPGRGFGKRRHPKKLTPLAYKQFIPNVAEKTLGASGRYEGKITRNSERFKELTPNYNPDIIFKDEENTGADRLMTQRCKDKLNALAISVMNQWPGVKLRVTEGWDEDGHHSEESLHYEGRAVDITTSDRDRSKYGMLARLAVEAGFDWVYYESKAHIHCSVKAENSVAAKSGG

B1: CLINT1 (protein, human (HEK293T cells), UniProt Q14677 1-625, looked up)
single chain: MLNMWKVRELVDKATNVVMNYSEIESKVREATNDDPWGPSGQLMGEIAKATFMYEQFPELMNMLWSRMLKDNKKNWRRVYKSLLLLAYLIRNGSERVVTSAREHIYDLRSLENYHFVDEHGKDQGINIRQKVKELVEFAQDDDRLREERKKAKKNKDKYVGVSSDSVGGFRYSERYDPEPKSKWDEEWDKNKSAFPFSDKLGELSDKIGSTIDDTISKFRRKDREDSPERCSDSDEEKKARRGRSPKGEFKDEEETVTTKHIHITQATETTTTRHKRTANPSKTIDLGAAAHYTGDKASPDQNASTHTPQSSVKTSVPSSKSSGDLVDLFDGTSQSTGGSADLFGGFADFGSAAASGSFPSQVTATSGNGDFGDWSAFNQAPSGPVASSGEFFGSASQPAVELVSGSQSALGPPPAASNSSDLFDLMGSSQATMTSSQSMNFSMMSTNTVGLGLPMSRSQNTDMVQKSVSKTLPSTWSDPSVNISLDNLLPGMQPSKPQQPSLNTMIQQQNMQQPMNVMTQSFGAVNLSSPSNMLPVRPQTNALIGGPMPMSMPNVMTGTMGMAPLGNTPMMNQSMMGMNMNIGMSAAGMGLTGTMGMGMPNIAMTSGTVQPKQDAFANFANFSK
ShhN^1-198-HA (mouse) [1]
  abundance in The ShhN Group: 275000
IGF2-HA (human)
  abundance in The IGF2 Group: 78500
ShhN^1-198-HA (mouse) [2]
  Abundance Ratio ShhN:IGF2: 3.5
